According to PMC9976904, “eIF4A1-dependent mRNAs employ purine-rich 5’UTR sequences to activate localised eIF4A1-unwinding through eIF4A1-multimerisation to facilitate translation”:

Legend:
eIF4A1 [1] = molecular target: T1, eIF4A1 (human, UniProt P60842 1-406); test: EMSA; silvestrol; multimerisation observed; 20 mM HEPES/KOH pH 7.5, 100 mM KCl, 1 mM TCEP, 1% DMSO, 2 mM AMPPNP/MgCl2, 25 C, 60 min; EMSA gels 6-7% acrylamide-TB, 0.5x TB; conditions: protein: recombinant; tags: N-terminal 6xHis-SUMO, cleaved; label: FAM
eIF4A1 [2] = molecular target: T1, eIF4A1; test: fluorescence anisotropy; 2 mM AMPPNP/MgCl2; affinity comparable to AG-RNA, Kd in figure only; 20 mM HEPES/KOH pH 7.5, 100 mM KCl, 1 mM TCEP, 1% DMSO, 2 mM AMPPNP/MgCl2, 25 C, 60 min; EMSA gels 6-7% acrylamide-TB, 0.5x TB; conditions: protein: recombinant; tags: N-terminal 6xHis-SUMO, cleaved; label: FAM or 5' Dy780
eIF4A1 [3] = molecular target: T1, eIF4A1; test: EMSA; silvestrol, MgCl2, no ATP; fully bound with and without scavenger AG-RNA; 20 mM HEPES/KOH pH 7.5, 100 mM KCl, 1 mM TCEP, 1% DMSO, 2 mM AMPPNP/MgCl2, 25 C, 60 min; EMSA gels 6-7% acrylamide-TB, 0.5x TB; conditions: protein: recombinant; tags: N-terminal 6xHis-SUMO, cleaved; label: EMSA: 5' Dy780 / 5' Dy680; FRET: 5' Cy3 / 5' Cy5; 5' overhang 20 nt

T1 sequence (P60842 whole entry): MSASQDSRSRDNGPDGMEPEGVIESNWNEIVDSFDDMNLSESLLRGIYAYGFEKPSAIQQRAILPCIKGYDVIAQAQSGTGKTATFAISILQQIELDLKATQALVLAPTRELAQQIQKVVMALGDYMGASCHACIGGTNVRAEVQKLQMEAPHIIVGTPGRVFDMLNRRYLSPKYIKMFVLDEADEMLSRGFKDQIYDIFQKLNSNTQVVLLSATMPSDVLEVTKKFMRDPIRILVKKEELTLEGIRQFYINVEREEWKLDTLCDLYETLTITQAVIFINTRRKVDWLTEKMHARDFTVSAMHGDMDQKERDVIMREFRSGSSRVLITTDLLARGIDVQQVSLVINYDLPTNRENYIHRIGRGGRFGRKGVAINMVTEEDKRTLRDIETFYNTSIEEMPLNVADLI

B1: 10 nt AG-RNA (ssRNA)
RNA: AGAGAGAGAG
binding result (eIF4A1 [1]): binds

B2: CAA-RNA (20 nt) (ssRNA)
RNA: CAACAACAACAACAACAACA
binding result (eIF4A1 [2]): binds

B3: AG-overhang 24 bp substrate (EMSA/FRET loading + reporter) (dsRNA)
RNA 1: AGAGAGAGAGAGAGAGAGAGGAAAAAAUUAAAAAAUUAAAAAAC
RNA 2: GUUUUUUAAUUUUUUAAUUUUUUC
binding result (eIF4A1 [3]): binds
